Measurements as given in US20110311550A1.

Tests used:
Assay in all cases: ELISA, lectin-captured E1E2 lysate, Ab 1 ug/ml
[1] = biological target: E1E2 complex (H77) with E1 mutation Q289A (HCV genotype 1a, isolate H77) (UniProt P27958)
[2] = biological target: E1E2 complex (H77) with E1 mutation R259A (HCV genotype 1a, isolate H77) (UniProt P27958)
[3] = biological target: E1E2 complex (H77) with E1 mutation N196A/N209A (HCV genotype 1a, isolate H77) (UniProt P27958)
[4] = biological target: E1E2 complex (H77) with E1 mutation D321A (HCV genotype 1a, isolate H77) (UniProt P27958)
[5] = biological target: E1E2 complex (H77) with E1 mutation S236A (HCV genotype 1a, isolate H77) (UniProt P27958)
[6] = biological target: E1E2 complex (H77) with E2 mutation A439G (HCV genotype 1a, isolate H77) (UniProt P27958)
[7] = biological target: E1E2 complex (H77) with E1 mutation N196A/N325A (HCV genotype 1a, isolate H77) (UniProt P27958)
[8] = biological target: E1E2 complex (H77) with E1 mutation L258A (HCV genotype 1a, isolate H77) (UniProt P27958)
[9] = biological target: E1E2 complex (H77) with E1 mutation G278A (HCV genotype 1a, isolate H77) (UniProt P27958)
[10] = biological target: E1E2 complex (H77) with E2 mutation R630A (HCV genotype 1a, isolate H77) (UniProt P27958)
[11] = biological target: E1E2 complex (H77) with E1 mutation P341A (HCV genotype 1a, isolate H77) (UniProt P27958)
[12] = biological target: E1E2 complex (H77) with E1 mutation G315A (HCV genotype 1a, isolate H77) (UniProt P27958)
[13] = biological target: E1E2 complex (H77) with E1 mutation P224A (HCV genotype 1a, isolate H77) (UniProt P27958)
[14] = biological target: E1E2 complex (H77) with E2 mutation H638A (HCV genotype 1a, isolate H77) (UniProt P27958)
[15] = biological target: E1E2 complex (H77) with E1 mutation S211A (HCV genotype 1a, isolate H77) (UniProt P27958)
[16] = biological target: E1E2 complex (H77) with E1 mutation H261A (HCV genotype 1a, isolate H77) (UniProt P27958)
[17] = biological target: E1E2 complex (H77) with E2 mutation R639A (HCV genotype 1a, isolate H77) (UniProt P27958)
[18] = biological target: E1E2 complex (H77) with E2 mutation R614A (HCV genotype 1a, isolate H77) (UniProt P27958)
[19] = biological target: E1E2 complex (H77) with E1 mutation L221A (HCV genotype 1a, isolate H77) (UniProt P27958)
[20] = biological target: E1E2 complex (H77) with E1 mutation W353A (HCV genotype 1a, isolate H77) (UniProt P27958)
[21] = biological target: E1E2 complex (H77) with E2 mutation Y443A (HCV genotype 1a, isolate H77) (UniProt P27958)
[22] = biological target: E1E2 complex (H77) with E1 mutation H298A (HCV genotype 1a, isolate H77) (UniProt P27958)
[23] = biological target: E1E2 complex (H77) with E2 mutation G436A (HCV genotype 1a, isolate H77) (UniProt P27958)
[24] = biological target: E1E2 complex (H77) with E1 mutation I212A (HCV genotype 1a, isolate H77) (UniProt P27958)
[25] = biological target: E1E2 complex (H77) with E2 mutation T435A (HCV genotype 1a, isolate H77) (UniProt P27958)
[26] = biological target: E1E2 complex (H77) with E1 mutation F291A (HCV genotype 1a, isolate H77) (UniProt P27958)
[27] = biological target: E1E2 complex (H77) with E1 mutation N196A/N305A (HCV genotype 1a, isolate H77) (UniProt P27958)
[28] = biological target: E1E2 complex (H77) with E1 mutation S273A (HCV genotype 1a, isolate H77) (UniProt P27958)
[29] = biological target: E1E2 complex (H77) with E2 mutation L441A (HCV genotype 1a, isolate H77) (UniProt P27958)

For mouse anti-E1 MAb A4 (antibody), the Binding relative to wt (%) [1] was 49%, the Binding relative to wt (%) [2] was 97% and the Binding relative to wt (%) [3] was 51%. It also gave a Binding relative to wt (%) [4] of 91%, a Binding relative to wt (%) [5] of 88% and a Binding relative to wt (%) [6] of 119%. For the same substance, the Binding relative to wt (%) [7] was 64%, the Binding relative to wt (%) [8] was 99% and the Binding relative to wt (%) [9] was 58%. It also gave a Binding relative to wt (%) [10] of 106%, a Binding relative to wt (%) [11] of 101% and a Binding relative to wt (%) [12] of 91%. For the same substance, the Binding relative to wt (%) [13] was 99%, the Binding relative to wt (%) [14] was 104% and the Binding relative to wt (%) [15] was 106%. For the same substance, the Binding relative to wt (%) [16] was 96%, the Binding relative to wt (%) [17] was 162% and the Binding relative to wt (%) [18] was 133%. The Binding relative to wt (%) [19] was 104%, the Binding relative to wt (%) [20] was 75% and the Binding relative to wt (%) [21] was 28%. For the same substance, the Binding relative to wt (%) [22] was 164%, the Binding relative to wt (%) [23] was 96% and the Binding relative to wt (%) [24] was 125%. For the same substance, the Binding relative to wt (%) [25] was 117%, the Binding relative to wt (%) [26] was 67% and the Binding relative to wt (%) [27] was 69%. For the same substance, the Binding relative to wt (%) [28] was 38% and the Binding relative to wt (%) [29] was 111%.
